Reference: patent US20230322857A1, “RECOMBINANTLY ENGINEERED POLYPEPTIDES CAPABLE OF RECYCLING NONCANONICAL COFACTORS” (The Regents of the University of California, priority 2022, published 2023)

Legend:
E. coli SHuffle strain = experiment: Recapitulation of growth restoration with TS-PTDH variants in SHuffle strain; format: cell-based, Escherichia coli; conditions: spotted onto agar selection plates
Procedure: Selection of TS-PTDH Library. A total of 50 μL pre-made SHuffle/pLZ311 or SHuffle/pLZ312 electro-competent cells were transformed with 2 μL TS-PTDH A155N-E175-A176-L208 NNK library DNA (pLZ316) via electroporation as described above. After rescue in SOC media for 1 h, cultures were combined in 10 mL 2×YT with 10 g/L glucose, 0.5% arabinose, kanamycin and ampicillin. 0.2, or 1 μL of culture was immediately taken from the culture and plated on an 2×YT agar plates with kanamycin and ampicillin. The plate was incubated at 37° C. overnight, and the number of colonies formed was counted to estimate the library size. The liquid cultures were incubated at 37° C. with shaking for 10 h. Cells (1 mL) were washed 3 times and re-suspended in M9 Buffer. Targeted serial dilutions of cells were prepared in M9 buffer and 5 μL aliquots were dispensed in series on an agar plate of M9 selection media containing 0.5 mM diamide, 5 or 1 g/L yeast extract, 10 g/L glucose, 0.5% arabinose, 0.5 mM IPTG, 10 g/L sodium phosphite, kanamycin, ampicillin, and 5 mM NMN^+. Selection plates were incubated at 37° C., and photographs were taken to document growth progress. The independent transformants sampled was calculated as 2.4×10^6 and 2.5×10^6 colonies when plated on 5 and 1 g/L yeast extract, respectively. TS-PTDH and the template of the library, TS-PTDH A155N, were cultured in the same conditions as controls. The colonies were numbered by the order of appearance. The selected cells were re-streaked on fresh agar plate with identical media and incubated until single colonies formed on the plate. Variants that cannot forma single colony may be false positives. After extracting the plasmids from each re-streaked colony, the chosen TS-PTDH variants were amplified and moved into the pQElac vector containing a N-terminal 6×His tag for protein purification and characterization. […] 2 μL of a serial dilution of cells were deposited onto a growth selection plate and grown at 37° C.

[1] = BNA(H)-mediated PTDH biotransformation with TsOYE; format: biochemical
Procedure: BNA(H)-Mediated PTDH Biotransformation. Reactions with BNA^+, see FIG. 10D, contained 100 mM MOPS-NaOH at pH 7.6, 10 mM KIP, 100 mM sodium phosphite, and 2% v/v DMSO. BNA^+Cl^−, prepared by refluxing equimolar amounts of nicotinamide and benzyl chloride in acetonitrile overnight, followed by precipitation with diethyl ether on ice was supplied to the reactions at final concentrations of 0, 5, 10, or 20 mM. Reactions were initiated by spiking TsOYE and the appropriate TS-PTDH variant to a final concentration of 10 μM, each. Reaction mixtures were incubated at 30° C. on a Thermomixer C (Eppendorf) with shaking at 900 rpm for 24 h, extracted with 500 μL ethyl acetate containing 5 mM n-dodecane, and analyzed by GC-FID. The cycling system with no BNA was used to determine the background activity of the cycling systems. This value was subtracted from the final levodione concentrations in the 5-, 10-, and 20-mM samples to determine the BNA(H)^− specific levodione production. Concentrations of levodione product were determined using a calibration line (0-10 mM, 6 levels, using n-dodecane as internal standard). The y-intercept of the calibration line was forced through 0.
For BNA(H)-mediated reactions, gas chromatography analyses were performed on a GC-2010 (Shimadzu, Japan) equipped with an AOC-20i auto injector and a flame ionization detector (FID), using a CP-Sil 5 column (25 m×0.25 mm×[…]). 1 μL of sample was injected with a split ratio of 100:1 and injector at 340° C. The FID was maintained at 360° C. Nitrogen was used as the carrier gas, with a linear velocity of 30 cm/s. The oven was held at 135° C. for 1 min, ramped at 15° C./min to 215° C., then 30° C./min to 345° C., and held at 345° C. for 1 min.
Expression and Purification of Proteins for BNA(H)-Mediated Biotransformation Reactions. E. coli BL21(DE3) strains were transformed with the plasmids containing the TS-PTDH variants and grown on LB-agar plates containing ampicillin at 37° C. overnight. An overnight culture, 15 mL LB supplemented with ampicillin, was inoculated with a single colony, and grown at 37° C., 170 rpm overnight. 2 L baffled shake-flasks with 250 mL of 2×YT media containing 200 μg/mL ampicillin, were inoculated with the overnight culture, grown at 37° C., 170 rpm until OD600 of ˜1.0, induced with IPTG (0.5 mM), and grown at 30° C. and 170 rpm for 24 h. Cells were harvested by centrifugation at 18,000×g, 4° C., 10 min and stored at −20° C. until purification.
The pellet was resuspended in four volumes loading buffer (50 mM sodium phosphate, 300 mM sodium chloride, 10 mM imidazole, pH 7.7), and lysed on ice by sonication (Branson sonifier 250; 15 min total, 40% duty cycle, output control 3.5, 2 mm tip). The lysate was clarified (21,000×g, 4° C., 30 min followed by 0.2 μm filtration), and loaded (1 mL/min) onto a Nickel-HisTrap FF crude (1 mL) column, washed with loading buffer (12 column volumes, CV), followed by a step with 10% elution buffer (loading buffer containing 250 mM imidazole; 12 CV). The protein was then eluted with 100% elution buffer and collected in fractions of 0.5 mL. Fractions containing protein were combined and dialyzed against ice-cold dialysis buffer (50 mM sodium phosphate, pH 7.7, 800 mL); the buffer was renewed after the first 2 h of dialysis. Following the dialysis, the protein was mixed with glycerol (20% v/v final concentration). Enzyme concentrations were estimated by the absorbance at 280 nm (non-denatured protein), using predicted extinction coefficients (wild type and LY-13: 26470, LY-7: […]; web.expasy.org/protparam/). The protein was aliquoted, flash frozen in liquid nitrogen, and stored at −80° C. until use. […]

B1: LY-13: phosphite dehydrogenase variant with A155N, E175A, A176F (SEQ ID NO: 6) (protein)
chain: MLPKLVITHRVHEEILQLLAPHCELITNQTDSTLTREEILRRCRDAQAMMAFMPDRVDADFLQACPELRVIGCALKGFDNFDVDACTARGVWLTFVPDLLTVPTAELAIGLAVGLGRHLRAADAFVRSGKFRGWQPRFYGTGLDNATVGFLGMGNIGLAMADRLQGWGATLQYHAFKALDTQTEQRLGLRQVACSELFASSDFILLALPLNADTLHLVNAELLALVRPGALLVNPCRGSVVDEAAVLAALERGQLGGYAADVFEMEDWARADRPQQIDPALLAHPNTLFTPHIGSAVRAVRLEIERCAAQNILQALAGERPINAVNRLPKANPAAD
growth restoration, co-expression with NMNH-specific Gor Ortho (E. coli SHuffle strain): markedly improved growth restoration | growth restoration, co-expression with NMNH-specific Gor Ortho (E. coli SHuffle strain; listed as TS-PTDH LY-13): improved growth compared to TS-PTDH A155N | activity / cycling with BNA^+ compared to wild type [1]: enhanced activity for BNA^+ reduction | response of biotransformation efficiency to BNA^+ concentration ([1]; 0, 5, 10, or 20 mM BNA^+): cofactor dose-dependent response | utilization of the BNA^+ pool relative to the wild type protein ([1]; 20 mM BNA^+ supplementation, TsOYE, 24 h): improved utilization of the BNA^+ pool
